This series concerns Escherichia coli TOP10. In words: shrunken log2 fold change of peptide-encoding DNA abundance (4.5 h post-induction vs induction); higher = less antimicrobial activity (less host growth inhibition). The note with it: time post-induction: 4.5 h; library: site-saturation at positions 5, 18, 19, 20.
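Note: peptides expressed intracellularly from a pBAD plasmid library in pooled LB shake-flask culture, induced with 0.3% L-arabinose, DNA abundance read by NGS, three biological replicates, DESeq2 with apeglm shrinkage.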

Consider RRIRNRPPRLPRPRPRPCHLPRP, for which the “shrunken log2 fold change” value was -0.146.

Consider RRIRTRPPRLPRPRPRPCNAPRP, for which the “shrunken log2 fold change” value is -0.228.

As for RRIRSRPPRLPRPRPRPINLPRP, the “shrunken log2 fold change” value was -0.00701.

RRIRCRPPRLPRPRPRPWFDPRP: the “shrunken log2 fold change” value is -0.496.

Turning to RRIRRRPPRLPRPRPRPGDPPRP, the “shrunken log2 fold change” value was 0.593.

RRIRHRPPRLPRPRPRPSPDPRP: the “shrunken log2 fold change” value is -0.293.

As to RRIRPRPPRLPRPRPRPIDRPRP, the “shrunken log2 fold change” value is -0.00145.

Turning to RRIRDRPPRLPRPRPRPNYYPRP, the “shrunken log2 fold change” value is -0.305.

As for RRIRKRPPRLPRPRPRPLHLPRP, the “shrunken log2 fold change” value is -0.198.

For RRIRLRPPRLPRPRPRPPTSPRP, the “shrunken log2 fold change” value was 0.493.

For RRIRMRPPRLPRPRPRPYSEPRP, the “shrunken log2 fold change” value came out at 0.171.

Take RRIRKRPPRLPRPRPRPTDRPRP: the “shrunken log2 fold change” value is 0.209.

In the case of RRIRHRPPRLPRPRPRPQHMPRP, the “shrunken log2 fold change” value was -1.2.

As for RRIRWRPPRLPRPRPRPRKFPRP, the “shrunken log2 fold change” value was 0.295.

For RRIRYRPPRLPRPRPRPDVYPRP, the “shrunken log2 fold change” value was -0.0212.

Consider RRIRCRPPRLPRPRPRPWEFPRP, for which the “shrunken log2 fold change” value was found to be 0.0363.

Take RRIRYRPPRLPRPRPRPQKHPRP: the “shrunken log2 fold change” value was -0.777.

Take RRIRQRPPRLPRPRPRPFHNPRP: the “shrunken log2 fold change” value was -0.152.

With RRIRRRPPRLPRPRPRPWTDPRP, the “shrunken log2 fold change” value was -0.131.

In the case of RRIRPRPPRLPRPRPRPHVSPRP, the “shrunken log2 fold change” value was found to be 0.00841.

As to RRIRCRPPRLPRPRPRPLLCPRP, the “shrunken log2 fold change” value was -0.163.

Take RRIRARPPRLPRPRPRPMWDPRP: the “shrunken log2 fold change” value is -0.103.

Turning to RRIRNRPPRLPRPRPRPHRWPRP, the “shrunken log2 fold change” value was found to be 0.0666.

On to RRIRTRPPRLPRPRPRPLVWPRP, for which the “shrunken log2 fold change” value worked out at 0.44.

On to RRIRSRPPRLPRPRPRPSPNPRP, for which the “shrunken log2 fold change” value is 0.0503.

Turning to RRIRQRPPRLPRPRPRPKTNPRP, the “shrunken log2 fold change” value was -0.117.

RRIRYRPPRLPRPRPRPMDNPRP: the “shrunken log2 fold change” value was -0.0386.

As to RRIRIRPPRLPRPRPRPFKVPRP, the “shrunken log2 fold change” value is -0.0829.

For RRIRWRPPRLPRPRPRPFRDPRP, the “shrunken log2 fold change” value was -0.196.

With RRIRPRPPRLPRPRPRPYKLPRP, the “shrunken log2 fold change” value is -0.313.

Turning to RRIRNRPPRLPRPRPRPNTYPRP, the “shrunken log2 fold change” value was -0.971.

As for RRIRHRPPRLPRPRPRPHSAPRP, the “shrunken log2 fold change” value stood at 0.0327.

Take RRIRERPPRLPRPRPRPFKIPRP: the “shrunken log2 fold change” value was -0.0307.

Regarding RRIRHRPPRLPRPRPRPMTMPRP, the “shrunken log2 fold change” value was -0.257.

As to RRIRKRPPRLPRPRPRPPSKPRP, the “shrunken log2 fold change” value came out at 0.541.

Regarding RRIRFRPPRLPRPRPRPDDSPRP, the “shrunken log2 fold change” value is -0.154.

For the sequence RRIRARPPRLPRPRPRPVNFPRP, the “shrunken log2 fold change” value came to 0.629.

For RRIRRRPPRLPRPRPRPHNHPRP, the “shrunken log2 fold change” value is -0.237.

On to RRIRSRPPRLPRPRPRPMNWPRP, for which the “shrunken log2 fold change” value was -0.0283.

As to RRIRLRPPRLPRPRPRPDQNPRP, the “shrunken log2 fold change” value was -0.0565.

Turning to RRIRFRPPRLPRPRPRPFQMPRP, the “shrunken log2 fold change” value is -0.647.

As for RRIRQRPPRLPRPRPRPKTWPRP, the “shrunken log2 fold change” value was 1.14.

On to RRIRQRPPRLPRPRPRPCNMPRP, for which the “shrunken log2 fold change” value amounted to 0.00148.

For RRIRYRPPRLPRPRPRPDSCPRP, the “shrunken log2 fold change” value amounted to 0.0675.

Consider RRIRVRPPRLPRPRPRPCTEPRP, for which the “shrunken log2 fold change” value was -0.167.

In the case of RRIRVRPPRLPRPRPRPDRLPRP, the “shrunken log2 fold change” value was 0.314.

For RRIRVRPPRLPRPRPRPSHLPRP, the “shrunken log2 fold change” value is -0.443.

With RRIRYRPPRLPRPRPRPPWDPRP, the “shrunken log2 fold change” value was determined as 0.128.

Turning to RRIRHRPPRLPRPRPRPCSKPRP, the “shrunken log2 fold change” value is -0.0875.

Turning to RRIRHRPPRLPRPRPRPFWWPRP, the “shrunken log2 fold change” value amounted to 0.0369.

As to RRIRCRPPRLPRPRPRPHKEPRP, the “shrunken log2 fold change” value was -0.334.

As to RRIRDRPPRLPRPRPRPQVLPRP, the “shrunken log2 fold change” value is -0.178.

For the sequence RRIRDRPPRLPRPRPRPKHPPRP, the “shrunken log2 fold change” value was found to be 0.0483.

In the case of RRIRPRPPRLPRPRPRPYQGPRP, the “shrunken log2 fold change” value is -0.0345.

Regarding RRIRTRPPRLPRPRPRPKKYPRP, the “shrunken log2 fold change” value was -0.627.

On to RRIRHRPPRLPRPRPRPGIHPRP, for which the “shrunken log2 fold change” value is -0.2.

Regarding RRIRRRPPRLPRPRPRPKTGPRP, the “shrunken log2 fold change” value was found to be 0.1.

For RRIRVRPPRLPRPRPRPINDPRP, the “shrunken log2 fold change” value is 0.0664.

Consider RRIRMRPPRLPRPRPRPTMEPRP, for which the “shrunken log2 fold change” value worked out at 0.868.

Turning to RRIRSRPPRLPRPRPRPCPLPRP, the “shrunken log2 fold change” value is -0.823.

As for RRIRIRPPRLPRPRPRPELMPRP, the “shrunken log2 fold change” value was -0.00872.

For RRIRQRPPRLPRPRPRPRMFPRP, the “shrunken log2 fold change” value is 0.0604.

As for RRIRCRPPRLPRPRPRPCQCPRP, the “shrunken log2 fold change” value was -0.208.

As to RRIRNRPPRLPRPRPRPSTVPRP, the “shrunken log2 fold change” value was -0.103.

With RRIRMRPPRLPRPRPRPCNIPRP, the “shrunken log2 fold change” value came to 0.0653.

Consider RRIRDRPPRLPRPRPRPCIWPRP, for which the “shrunken log2 fold change” value came out at 0.033.

For the sequence RRIRNRPPRLPRPRPRPYNPPRP, the “shrunken log2 fold change” value is -0.299.

RRIRRRPPRLPRPRPRPRFTPRP: the “shrunken log2 fold change” value was found to be 0.264.

For the sequence RRIRLRPPRLPRPRPRPFNVPRP, the “shrunken log2 fold change” value is -0.485.

Take RRIRNRPPRLPRPRPRPGPRPRP: the “shrunken log2 fold change” value is 0.641.

As to RRIRGRPPRLPRPRPRPHPFPRP, the “shrunken log2 fold change” value was -0.0384.

On to RRIRVRPPRLPRPRPRPTYKPRP, for which the “shrunken log2 fold change” value was -0.512.

RRIRKRPPRLPRPRPRPLNPPRP: the “shrunken log2 fold change” value worked out at 0.129.

Regarding RRIRQRPPRLPRPRPRPSSCPRP, the “shrunken log2 fold change” value was determined as 0.0394.

On to RRIRIRPPRLPRPRPRPPIPPRP, for which the “shrunken log2 fold change” value was found to be 0.00551.

Turning to RRIRLRPPRLPRPRPRPSSWPRP, the “shrunken log2 fold change” value was -0.0958.

As to RRIRQRPPRLPRPRPRPHWAPRP, the “shrunken log2 fold change” value was -0.143.

Regarding RRIRFRPPRLPRPRPRPRYIPRP, the “shrunken log2 fold change” value is -0.392.

As for RRIRKRPPRLPRPRPRPIRRPRP, the “shrunken log2 fold change” value came to 0.0536.

Take RRIRMRPPRLPRPRPRPVFAPRP: the “shrunken log2 fold change” value amounted to 0.378.

For the sequence RRIRGRPPRLPRPRPRPTFDPRP, the “shrunken log2 fold change” value is 0.548.

RRIRFRPPRLPRPRPRPAWNPRP: the “shrunken log2 fold change” value came to 0.291.

Consider RRIRPRPPRLPRPRPRPAKGPRP, for which the “shrunken log2 fold change” value is 0.403.

Take RRIRHRPPRLPRPRPRPNFDPRP: the “shrunken log2 fold change” value was -0.0783.

For RRIRNRPPRLPRPRPRPMIYPRP, the “shrunken log2 fold change” value is -0.265.

Consider RRIRKRPPRLPRPRPRPGNQPRP, for which the “shrunken log2 fold change” value came out at 0.0471.

On to RRIRSRPPRLPRPRPRPNSFPRP, for which the “shrunken log2 fold change” value is -0.63.

Take RRIRARPPRLPRPRPRPYGDPRP: the “shrunken log2 fold change” value was -0.0672.

As to RRIRMRPPRLPRPRPRPAKMPRP, the “shrunken log2 fold change” value is 0.134.

Turning to RRIRQRPPRLPRPRPRPRKQPRP, the “shrunken log2 fold change” value stood at 0.505.

As to RRIRARPPRLPRPRPRPLEIPRP, the “shrunken log2 fold change” value amounted to 0.0728.

Source of the values: the supplement of paper PMC9112550, “Optimization of the antimicrobial peptide Bac7 by deep mutational scanning” (BMC Biology, 2022).
